Test results from IntAct's records for PubMed 24612608.

B1: Beta-secretase 1 (Homo sapiens), P56817 (parent)
chain: MAQALPWLLLWMGAGVLPAHGTQHGIRLPLRSGLGGAPLGLRLPRETDEEPEEPGRRGSFVEMVDNLRGKSGQGYYVEMTVGSPPQTLNILVDTGSSNFAVGAAPHPFLHRYYQRQLSSTYRDLRKGVYVPYTQGKWEGELGTDLVSIPHGPNVTVRANIAAITESDKFFINGSNWEGILGLAYAEIARPDDSLEPFFDSLVKQTHVPNLFSLQLCGAGFPLNQSEVLASVGGSMIIGGIDHSLYTGSLWYTPIRREWYYEVIIVRVEINGQDLKMDCKEYNYDKSIVDSGTTNLRLPKKVFEAAVKSIKAASSTEKFPDGFWLGEQLVCWQAGTTPWNIFPVISLYLMGEVTNQSFRITILPQQYLRPVEDVATSQDDCYKFAISQSSTGTVMGAVIMEGFYVVFDRARKRIGFAVSACHVHDEFRTAAVEGPFVTLDMEDCGYNIPQTDESTLMTIAYVMAAICALFMLPLCLMVCQWRCLRCLRQQHDDFADDISLLK
partner: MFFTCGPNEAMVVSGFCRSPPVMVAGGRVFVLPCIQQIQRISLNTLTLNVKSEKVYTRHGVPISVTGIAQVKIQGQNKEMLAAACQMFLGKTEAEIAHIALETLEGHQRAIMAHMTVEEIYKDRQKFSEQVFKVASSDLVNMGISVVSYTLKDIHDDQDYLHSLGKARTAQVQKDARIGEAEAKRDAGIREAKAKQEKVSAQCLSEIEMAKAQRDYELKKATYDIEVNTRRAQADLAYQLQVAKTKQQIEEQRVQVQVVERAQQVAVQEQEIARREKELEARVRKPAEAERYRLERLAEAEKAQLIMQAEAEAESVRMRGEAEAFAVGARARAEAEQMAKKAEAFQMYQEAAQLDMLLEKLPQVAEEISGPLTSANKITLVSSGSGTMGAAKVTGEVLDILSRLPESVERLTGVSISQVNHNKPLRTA

Variants of: B1
Conditions: with flot1_rat Flot1, Q9Z1E1

effect of a mutation on the interaction | Variant
disrupting interaction | L499A;L500A
